Experimental data: the supplement of paper PMC7877785
± gives the uncertainty stated by the source.

Experiment: self-splicing fitness, log relative to wild type (ln ratio); higher = more splicing; Tetrahymena group I intron in knt gene, E. coli kanamycin selection, DiMSum; sequences stand for … in CUCUCU…GGAGGGAAAAGUUAUCAGGCAUGCACCUGGUAGCUAGUCUUUAAACCAAUAGAUUGCAUCGGUUUAAAAGGCAAGACCGUCAAAUUGCGGGAAAGGGGUCAACAGCCGUUCAGUACCAAGUCUCAGGGGAAACUUUGAGAUGGCCUUGCAAAGGGUAUGGUAAUAAGCUGACGGACAUGGUCCUAACCACGCAGCCAAGUCCUAAGUCAACAGAUCUUCUGUUGAUAUGGAUGCAGUUCACAGACUAAAUGUCGGUCGGGGAAGAUGUAUUCUUCUCAUAAGAUAUAGUCGGACCUCUCCUUAAUGGGAGCUAGCGGAUGAAGUGAUGCAACACUGGAGCCGCUGGGAACUAAUUUGUAUGCGAAAGUAUAUUGAUUAGUUUUGGAGUACUCGUGGUCG
Outline: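 DiMSum derived fitness as the error-weighted combination of fold changes across replicates, kanamycin versus no kanamycin, normalised to wild type. E. coli BL21(DE3) held the library, which randomised all eight P1ex-region intron nucleotides within the knt kanamycin-resistance gene on pET-22b(+). Six replicate transformations grew overnight at 37°C or 30°C on LB agar with or without 25 μg/mL kanamycin, also containing 100 μg/mL carbenicillin, 50 μM IPTG and 0.2% rhamnose, and pooled colonies were amplicon-sequenced on an Illumina HiSeq 2500.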

Row | Sequence | self-splicing fitness (ln) (30 °C) | self-splicing fitness (ln) (37 °C)
1 | CCCUAGCAAUAUUACGAGCG | -2.86 ± 0.21 | -1.13 ± 0.19
2 | UUGCAGCAAUAUUACGCAGA | -2.12 ± 0.11 | -1.95 ± 0.096
3 | CUACAGCAAUAUUACGUUUG | -0.766 ± 0.04 | -0.34 ± 0.06
4 | ACUGAGCAAUAUUACGAUCU | -1.28 ± 0.12 | -0.653 ± 0.1
5 | CGCUAGCAAUAUUACGCCUA | -2.65 ± 0.25 | -3.05 ± 0.28
6 | GGCAAGCAAUAUUACGCGCC |  | -1.77 ± 0.28
7 | CCCAAGCAAUAUUACGGGCU | -3.61 ± 0.18 | -2.31 ± 0.17
8 | UCCGAGCAAUAUUACGCCAU | -2.56 ± 0.28 | -3.16 ± 0.4
9 | ACGGAGCAAUAUUACGUAAU | -3.61 ± 0.41 | -2.39 ± 0.48
10 | CAGAAGCAAUAUUACGAACG | -0.0252 ± 0.12 | 0.182 ± 0.16
11 | AUGUAGCAAUAUUACGUCAU | -1.81 ± 0.059 | -0.896 ± 0.069
12 | GGACAGCAAUAUUACGUCAC | -2.41 ± 0.17 | -1.56 ± 0.2
13 | AGAAAGCAAUAUUACGGGGC | -4.36 ± 0.3 | -2.05 ± 0.21
14 | GGCUAGCAAUAUUACGUAGU | -3.29 ± 0.17 | -2.04 ± 0.2
15 | CAGCAGCAAUAUUACGUAGU | -3.03 ± 0.12 | -2.56 ± 0.13
16 | GUUAAGCAAUAUUACGUGAU | -1.94 ± 0.067 | -1.44 ± 0.082
17 | CGAGAGCAAUAUUACGACCU | -0.7 ± 0.21 | -0.635 ± 0.41
18 | CCACAGCAAUAUUACGCGGU | -3.46 ± 0.17 | -1.94 ± 0.15
19 | CUAAAGCAAUAUUACGAUUU | -4.23 ± 0.28 | -2.46 ± 0.32
20 | GUGUAGCAAUAUUACGGGUA | -2.39 ± 0.2 | -2.42 ± 0.16
21 | GAUGAGCAAUAUUACGCGGG | -3.55 ± 0.42 | -3.59 ± 0.47
22 | AUUUAGCAAUAUUACGAGUG | -2.59 ± 0.18 | -0.743 ± 0.18
23 | AGCCAGCAAUAUUACGGAAU | -1.76 ± 0.12 | -1.52 ± 0.14
24 | AAUAAGCAAUAUUACGCGGU | -3.83 ± 0.24 | -2.36 ± 0.17
25 | UUGGAGCAAUAUUACGUGCU |  | -2.64 ± 0.34
26 | AACGAGCAAUAUUACGUACG | -4.19 ± 0.46 | -1.63 ± 0.35

Row | Sequence | self-splicing fitness (ln) (30 °C) | self-splicing fitness (ln) (37 °C)
27 | UUAUAGCAAUAUUACGCGAA | -1.97 ± 0.2 | -1.53 ± 0.34
28 | CCUAAGCAAUAUUACGCGUG | -3.34 ± 0.13 | -2.48 ± 0.13
29 | GAUUAGCAAUAUUACGGGCA | -1.13 ± 0.13 | -0.685 ± 0.12
30 | GGUUAGCAAUAUUACGGGCU | -3.26 ± 0.41 | -1.68 ± 0.32
31 | ACGGAGCAAUAUUACGGAUU | -3.94 ± 0.31 | -0.896 ± 0.16
32 | GCUCAGCAAUAUUACGCCCC | 0.441 ± 0.32 | -0.222 ± 0.41
33 | UCGGAGCAAUAUUACGCGUA | -1.73 ± 0.26 | -1.38 ± 0.21
34 | CAGCAGCAAUAUUACGGUAA | -1.97 ± 0.12 | -1.41 ± 0.12
35 | AUAUAGCAAUAUUACGGUAC | -3.69 ± 0.39 | -2.59 ± 0.22
36 | AGUAAGCAAUAUUACGUAUC | -3.99 ± 0.33 | -0.681 ± 0.23
37 | CUGGAGCAAUAUUACGAACG | -0.869 ± 0.15 | 0.129 ± 0.16
38 | GUAGAGCAAUAUUACGCCUC | -0.746 ± 0.27 | -0.67 ± 0.37
39 | GGGCAGCAAUAUUACGCCCG | -2.33 ± 0.23 | 
40 | CAUUAGCAAUAUUACGAUGG | -0.461 ± 0.076 | 0.0641 ± 0.083
41 | UACAAGCAAUAUUACGUCUU | -3.55 ± 0.17 | -1.68 ± 0.13
42 | CACAAGCAAUAUUACGCUCU | -3.04 ± 0.24 | -1.38 ± 0.17
43 | GUCAAGCAAUAUUACGUCAU | -2.22 ± 0.075 | -1.16 ± 0.064
44 | CCAGAGCAAUAUUACGGAAC | -2.32 ± 0.2 | -3.08 ± 0.36
45 | UUGAAGCAAUAUUACGUUGU | -2.87 ± 0.11 | -2.24 ± 0.16
46 | GUUAAGCAAUAUUACGAUUU | -0.759 ± 0.09 | -0.00651 ± 0.14
47 | GAGCAGCAAUAUUACGGUGA | -2.25 ± 0.12 | -0.646 ± 0.13
48 | UGGGAGCAAUAUUACGCUAG | -2.79 ± 0.32 | -1.99 ± 0.36
49 | GACAAGCAAUAUUACGUACU | -1.16 ± 0.059 | -0.397 ± 0.079
50 | CCGAAGCAAUAUUACGCGAG | -2.65 ± 0.11 | -2.08 ± 0.15
51 | GUGAAGCAAUAUUACGACUC | 0.243 ± 0.26 | -0.398 ± 0.28
52 | UUCGAGCAAUAUUACGAUCG | -2.94 ± 0.32 | -1.53 ± 0.43

Row | Sequence | self-splicing fitness (ln) (30 °C) | self-splicing fitness (ln) (37 °C)
53 | CUUGAGCAAUAUUACGUCAU | -3.58 ± 0.29 | -2.88 ± 0.31
54 | UGGUAGCAAUAUUACGGUAA | -1.34 ± 0.18 | -0.209 ± 0.12
55 | AGCUAGCAAUAUUACGUAGU | -3.32 ± 0.12 | -2.85 ± 0.14
56 | UGGCAGCAAUAUUACGUCAG | -0.12 ± 0.074 | -0.817 ± 0.11
57 | CUUAAGCAAUAUUACGUAUC |  | -2.98 ± 0.33
58 | CGCCAGCAAUAUUACGGAGC | -3.06 ± 0.24 | -2.82 ± 0.48
59 | CAUUAGCAAUAUUACGUAGG | -0.646 ± 0.08 | -0.199 ± 0.11
60 | CACCAGCAAUAUUACGUAAA | -3.49 ± 0.15 | -1.6 ± 0.11
61 | CCGAAGCAAUAUUACGGAGA | -2.52 ± 0.25 | -2.68 ± 0.34
62 | AUGAAGCAAUAUUACGUUUA | -0.538 ± 0.061 | -0.537 ± 0.079
63 | UCUCAGCAAUAUUACGUUUC | -4.29 ± 0.42 | -1.97 ± 0.34
64 | ACUCAGCAAUAUUACGCGUC | -3.42 ± 0.19 | -2.06 ± 0.25
65 | ACAGAGCAAUAUUACGAACA | -2.01 ± 0.26 | -2.67 ± 0.41
66 | CACAAGCAAUAUUACGGCUU | -3.67 ± 0.19 | -2.98 ± 0.23
67 | UCGCAGCAAUAUUACGCUGG | -1.76 ± 0.16 | -2 ± 0.21
68 | CAUCAGCAAUAUUACGGGGC | -4 ± 0.16 | -2.01 ± 0.15
69 | ACUAAGCAAUAUUACGCCAU |  | -2.01 ± 0.29
70 | CUAUAGCAAUAUUACGAAUG | -0.481 ± 0.087 | 0.0255 ± 0.12
71 | AGCUAGCAAUAUUACGCCGC | -2.36 ± 0.2 | -3.06 ± 0.47
72 | AAGCAGCAAUAUUACGAUUU | 0.17 ± 0.061 | 0.619 ± 0.079
73 | CUAGAGCAAUAUUACGACUC |  | -1.39 ± 0.48
74 | CCAGAGCAAUAUUACGAAGU | -4.41 ± 0.46 | -2.8 ± 0.34
75 | AGACAGCAAUAUUACGCUCU | -2.08 ± 0.18 | -0.598 ± 0.15
76 | AGAUAGCAAUAUUACGGACG | -0.861 ± 0.15 | -0.892 ± 0.15
77 | GCCUAGCAAUAUUACGCGGC | -3.58 ± 0.35 | -2 ± 0.28
78 | UCCCAGCAAUAUUACGUCUC | -3.23 ± 0.22 | -2.89 ± 0.25
